The record followed here is US20260226095A1.

For experiment [1], the target named is human recombinant TNFα (human) (UniProt P01375). Nature of the experiment: SPR, Biacore T200, standard kinetics, antigen immobilized on CM5 chip. Background: SPR reads the build-up and loss of mass on a sensor chip optically.
Experiment [2] has the same target. The experiment can be described thus: ELISA on human recombinant TNFα, anti-His tag and HRP anti-mouse IgG. (In an ELISA, binding on a coated surface is turned into a signal by an enzyme label.)

human recombinant TNFα (human), sequence (P01375 77-233 limits assumed): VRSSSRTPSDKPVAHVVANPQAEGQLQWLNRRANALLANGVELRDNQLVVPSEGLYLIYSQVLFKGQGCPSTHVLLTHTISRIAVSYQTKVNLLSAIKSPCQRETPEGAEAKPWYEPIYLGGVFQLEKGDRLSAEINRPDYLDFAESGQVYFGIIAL

For scFv Ab3 (Adalimumab) of synthesis, in experiment [1], the Kd (usually the free concentration of one partner at which half of the binding sites on the other are occupied at equilibrium, for simple one-to-one binding) was 4.3 nM and the RUmax is 12 RU. In addition, the EC50 (read off the curve) (in general, the concentration needed to bring the measured effect to its halfway point) in experiment [2] worked out at 0.09 µg/mL.
On to scFv Ab3 RREF, for which the Kd in experiment [1] was 9.3 nM.
